B1: DinBΔPAD (DinB^1-230) (domain or fragment, E. coli, UniProt Q47155 1-230, looked up)
chain: MRKIIHVDMDCFFAAVEMRDNPALRDIPIAIGGSRERRGVISTANYPARKFGVRSAMPTGMALKLCPHLTLLPGRFDAYKEASNHIREIFSRYTSRIEPLSLDEAYLDVTDSVHCHGSATLIAQEIRQTIFNELQLTASAGVAPVKFLAKIASDMNKPNGQFVITPAEVPAFLQTLPLAKIPGVGKVSAAKLEAMGLRTCGDVQKCDLVMLLKRFGKFGRILWERSQGID
modifications: biotin (EZ-Link NHS-PEG4-Biotin, conditions favouring the amino-terminal α-amino group) in the BLI assay; [U-2H,15N]-labelled in the NMR titration
notes: E. coli DNA polymerase IV (DinB), residues 1-230 (Fingers, Palm, Thumb); stop codon introduced at amino acid 231; also called Biotin-DinBΔPAD; source: E. coli BL21 (λDE3), purified (Ni2+-Histrap, heparin, SEC)
B2: DNA polymerase IV (DinB), DinB^1-351 (enzyme, E. coli, UniProt Q47155 1-351, looked up)
chain: MRKIIHVDMDCFFAAVEMRDNPALRDIPIAIGGSRERRGVISTANYPARKFGVRSAMPTGMALKLCPHLTLLPGRFDAYKEASNHIREIFSRYTSRIEPLSLDEAYLDVTDSVHCHGSATLIAQEIRQTIFNELQLTASAGVAPVKFLAKIASDMNKPNGQFVITPAEVPAFLQTLPLAKIPGVGKVSAAKLEAMGLRTCGDVQKCDLVMLLKRFGKFGRILWERSQGIDERDVNSERLRKSVGVERTMAEDIHHWSECEAIIERLYPELERRLAKVKPDLLIARQGVKLKFDDFQQTTQEHVWPRLNKADLIATARKTWDERRGGRGVRLVGLHVTLLDPQMERQLVLGL
modifications: biotin (EZ-Link NHS-PEG4-Biotin, conditions favouring the amino-terminal α-amino group) in the BLI assay; isotope-labelled ([U-2H,15N] or MALVI^proS methyl-labelled) in the NMR titrations
notes: E. coli DNA polymerase IV (DinB), residues 1-351, from pET28b(+)-DinB (Genscript); No removal of the His6 tag is described for DinB and DinBΔPAD; also called full-length DinB; MALVI^proS-DinB; source: E. coli BL21 (λDE3), purified (Ni2+-Histrap, heparin, SEC)

Tests used:
[1] = target: T1, RNA polymerase core enzyme (subunits α2ββ'ω) (UniProt P0A7Z4 1-329; P0A8V2 1-1342; P0A8T7 1-1407; P0A800 1-91); assay: BLI; Octet RED96, 303 K; 0.5 μM Biotin-DinBΔPAD immobilised on streptavidin biosensors, blocked with biocytin; RNAP core as analyte in 2-fold serial dilution; 50 mM KPi pH 6.5, 50 mM NaCl, 25 mM MgCl2, 1 mM TCEP, 0.25% BSA; double referencing; settings: both partners purified
[2] = target: T1, RNA polymerase core enzyme (subunits …); assay: BLI; Octet RED96, 303 K; 0.5 μM Biotin-DinB immobilised on streptavidin biosensors, blocked with biocytin; RNAP core as analyte in 2-fold serial dilution; 50 mM KPi pH 6.5, 150 mM NaCl, 25 mM MgCl2, 1 mM TCEP, 0.5% BSA; double referencing; settings: both partners purified

Row | Binder | Kd [1] | Kd [2]
1 | B1 | 5.9 ± 0.05 nM | –
2 | B2 | – | 6.4 ± 0.07 nM
